According to paper PMC6315137, “Pyridine Nucleotide Coenzyme Specificity of p-Hydroxybenzoate Hydroxylase and Related Flavoprotein Monooxygenases” (Frontiers in Microbiology, 2018):

Assays:
Experiment in all cases: purified protein
[1] = substrate: NC(=O)C1=CN([C@@H]2O[C@H](COP(=O)(O)OP(=O)(O)OC[C@H]3O[C@@H](n4cnc5c(N)ncnc54)[C@H](OP(=O)(O)O)[C@@H]3O)[C@@H](O)[C@H]2O)C=CC1; format: biochemical, Cupriavidus necator; settings: 500 μM 4-hydroxybenzoate, 60 μM FAD, 50 mM Tris/sulfate pH 7.5, 30°C
[2] = substrate: O=C(O)c1ccc(O)cc1; format: biochemical, Cupriavidus necator; settings: 175 μM NADPH, 60 μM FAD, 50 mM Tris/sulfate pH 7.5, 30°C
[3] = substrate: NC(=O)C1=CN([C@@H]2O[C@H](COP(=O)(O)OP(=O)(O)OC[C@H]3O[C@@H](n4cnc5c(N)ncnc54)[C@H](O)[C@@H]3O)[C@@H](O)[C@H]2O)C=CC1; format: biochemical, Rhodococcus opacus; settings: 500 μM 4-hydroxybenzoate, 60 μM FAD, 50 mM Tris/sulfate pH 7.5, 30°C
[4] = substrate: NC(=O)C1=CN([C@@H]2O[C@H](COP(=O)(O)OP(=O)(O)OC[C@H]3O[C@@H](n4cnc5c(N)ncnc54)[C@H](OP(=O)(O)O)[C@@H]3O)[C@@H](O)[C@H]2O)C=CC1; format: biochemical, Rhodococcus opacus; settings: 500 μM 4-hydroxybenzoate, 60 μM FAD, 50 mM Tris/sulfate pH 7.5, 30°C
[5] = substrate: O=C(O)c1ccc(O)cc1; format: biochemical, Rhodococcus opacus; settings: 175 μM NADH, 60 μM FAD, 50 mM Tris/sulfate pH 7.5, 30°C
[6] = substrate: NC(=O)C1=CN([C@@H]2O[C@H](COP(=O)(O)OP(=O)(O)OC[C@H]3O[C@@H](n4cnc5c(N)ncnc54)[C@H](O)[C@@H]3O)[C@@H](O)[C@H]2O)C=CC1; format: biochemical, Cupriavidus pinatubonensis; settings: 500 μM 4-hydroxybenzoate, 60 μM FAD, 50 mM Tris/sulfate pH 7.5, 30°C
[7] = substrate: O=C(O)c1ccc(O)cc1; format: biochemical, Cupriavidus pinatubonensis; settings: 175 μM NADH, 60 μM FAD, 50 mM Tris/sulfate pH 7.5, 30°C

B1: PHBHCn2 (Cupriavidus pinatubonensis JMP134) (protein)
chain: MRTQVAIIGAGPAGLLLGQLLSRAGIDNIIVEQRSPEYVLGRIRAGILESVTVDALERAGVAARLHDEGLPHAGIELSFNGQRHRIDLQALTGRTVTVYGQTEVTRDLMAARQAEGTTTIYEAADVSLHGFDGTRPLVRYRKDGATHEIECDYIAGCDGFHGVSRQSVPATSSQLFERVYPFGWLGILSDTPPVADELIYASHERGFALCSMRSKARSRYYVQVPSTERVEDWSDERFWDELRSRLDPQAAESLVTGPSIEKSIAPLRSFVCEPMRFGRLFLAGDAAHIVPPTGAKGLNLAASDVLYLADALTARYQQDDLRELDSYSEKCLRRIWKAERFSWWMTSLLHRFPDADAFSARIQQAELDFLVSSEAACKALAENYVGLPY
notes: N-terminal His10-tag, codon-optimized gene, E. coli BL21 (DE3) pLysS, Ni-chelate purified; motif 32-EQRSPEYVLGR
[1]
  Km: 146 ± 20 µM
  Vmax: 49.1 µmol/min/mg
  kcat: 37 ± 2.8 s⁻¹
[2]
  Km: 26.4 ± 4.4 µM
  Vmax: 27 µmol/min/mg
  kcat: 18 ± 0.7 s⁻¹

B2: PHBHRo1CP (Rhodococcus opacus) (protein)
chain: MNTQVGIVGGGPAGLMLSHLLHLKGIDSVVLESRTREEVEGTIRAGVLEQNTVDLMVDTGLGDRVKREGLTHHGIELRFGGRGHRIDFDELTNGRAVTVYPQHEVLKDLIARRLEDDGDIRFGVSDVQVHDHTSDNPKITYLDADGNEQTLTCALVAGCDGSRTSTRGLIPETTVRTDHFRQYPFAWFGILAEAPPSSEELIYANHPRGFALISTRTPEVQRHYLQVDPDDSVDNWSDDRIWSELHARVDGEGAEIKDGKIFQKSILQFRSFVCEPMQHGNLFLAGDAAHTVPPTGAKGMNLAIADVYFLSQAMAEYFATRSRAGLEGYTDSVLPRVWRTQHFSWWMSSMLHRLPDETGFGHKRQVAELDMVTRSVAGRTLIAENYVGTPLG
notes: His10-tagged, pET16bp, E. coli, Ni-chelate purified; motif 32-ESRTREEVEGT
[3]
  Km: 39.7 ± 5.0 µM
  Vmax: 20 µmol/min/mg
  kcat: 15.3 ± 0.7 s⁻¹
[4]
  Km: 153 ± 16 µM
  Vmax: 19.8 µmol/min/mg
  kcat: 15 ± 1.5 s⁻¹
[5]
  Km: 30.4 ± 2.4 µM
  Vmax: 16.8 µmol/min/mg
  kcat: 12.9 ± 0.2 s⁻¹

B3: PHBHCn1 (Cupriavidus pinatubonensis JMP134) (protein)
chain: MRTRVAIIGAGPAGLLLGHLLQRAGIDSVILEDCTQAHVEARIRAGVLEQGTVDLLEEAGVAARLREQGMVHHGIDLLFDGQRHRIDLSGLTGGRAITVYGQHEVVRDLIAARQACGAPLLFEVSQVALHGLDTQSPSLSFEHGGQRHVLACDFIAGCDGSHGVSRHAVPAGALQVFERSYPFAWLGILASAAPAAQELIYASHARGFALFSMRSPEITRLYLQCRPDEDLAGWTDRRIWDELHARLETGDGWHLNEGPVLQKGITPMRSLVTEPMQYGRLFLAGDAAHIVPPTGAKGMNLAVADVRNLAHALVTHYRHGRDDLLAGYSSACLARVWRAEHFSWWMTSLLHRFDDHTPFTARLQHAELAYVCASQAASRMLAENYVGLPFAPLPA
notes: N-terminal His10-tag, codon-optimized gene, E. coli BL21 (DE3) pLysS, Ni-chelate purified; motif 32-EDCTQAHVEAR
[6]
  Km: 49.8 ± 5.6 µM
  Vmax: 12.3 µmol/min/mg
  kcat: 9.4 ± 0.4 s⁻¹
[7]
  Km: 20.2 ± 2.3 µM
  Vmax: 9.9 µmol/min/mg
  kcat: 7.6 ± 0.2 s⁻¹
